Here are results for 2 molecules from patent US20220106405A1 (YEDA RESEARCH AND DEVELOPMENT, published 2022).

One experiment has as its target T1, MMP-7 zymogen / pro form (UniProt P09237 18-267, limits assumed).
T1 construct: domain: zymogen/pro form; Recombinant zymogen on the dot blot and in ELISA; also called MMP-7 pro form; zymogen form of the enzyme
T1 sequence (looked up): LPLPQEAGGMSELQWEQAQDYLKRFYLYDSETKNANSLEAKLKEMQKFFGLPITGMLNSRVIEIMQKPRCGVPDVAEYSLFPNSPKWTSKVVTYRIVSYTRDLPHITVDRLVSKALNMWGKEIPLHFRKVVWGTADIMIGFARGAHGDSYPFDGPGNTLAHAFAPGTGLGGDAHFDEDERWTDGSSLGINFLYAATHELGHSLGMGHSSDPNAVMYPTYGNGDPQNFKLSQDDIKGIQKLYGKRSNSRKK
The experiment can be described thus: dot blot. As to the method:
A dot blot was performed by immobilizing 1, 1.5 and 2 μg zymogen and activated MMP-7 recombinant enzyme on nitrocellulose membrane pre wetted with TBST using a vacuum based manifold 96 well dot-blot system (GE 10447900 Minifold dot blot). The blocking was performed for 1 hour at room temperature with 3% BSA in TBST. The membrane was then probed for binding by antibody eluted in the earlier step by incubating overnight. The anti MMP-7 mAb used was at 2 ug/ml concentration in TBST. The membrane after 3 washes in TBST was incubated with goat anti mouse HRP antibody and developed using ECL to determine the selectivity of binding towards catalytic form only.
Only antibodies that were capable of binding to the activated form of MMP-7 and not the zymogen were selected for further development (i.e. selected for fusion and developed to generate monoclonal antibodies). This was carried out by dot blot analysis using a nitrocellulose membrane coated with varying concentrations of active MMP-7 and its zymogen respectively.

For the next experiment, the target named is MMP-9 (UniProt P14780 107-707, limits assumed). Kind of experiment: ELISA, MMP-coated plate. The method, then:
(§1) MMP-7 Elisa binding assay: A 96-well plate (Nunc) was coated with MMP at 5 mg/ml. […] The bound Fab fragment/full length was detected using a goat anti-Fab/anti-mouse antibody followed by peroxidase-conjugated bovine anti-goat antibody according to standard procedures. A four-parametric sigmoidal curve-fitting analysis was used to calculate the half-maximal effective concentration.
(§2) The lack of binding to a panel of other MMPs helped measure the novel antibody's affinity to epitopes specifically unique to MMP-7.
(ELISA stands for enzyme-linked immunosorbent assay.)

The next experiment has as its target MMP-14 (UniProt P50281 112-538, limits assumed). Kind of experiment: ELISA, MMP-coated plate. The method, then: as §1, §2
Another experiment addresses MMP-12 (UniProt P39900 106-263, limits assumed). Kind of experiment: ELISA, MMP-coated plate. As to the method: as §1, §2
In a further experiment the target is MMP-13 (UniProt P45452 104-471, limits assumed). Kind of experiment: ELISA, MMP-coated plate. The method, then: as §1, §2
Experiment [1] addresses T2, recombinant human MMP-7 activated form (catalytic domain) (human, UniProt P09237 95-267).
T2 construct: domain: catalytic domain; Contains the catalytic zinc; also called MMP-7 active enzyme
T2 sequence (looked up): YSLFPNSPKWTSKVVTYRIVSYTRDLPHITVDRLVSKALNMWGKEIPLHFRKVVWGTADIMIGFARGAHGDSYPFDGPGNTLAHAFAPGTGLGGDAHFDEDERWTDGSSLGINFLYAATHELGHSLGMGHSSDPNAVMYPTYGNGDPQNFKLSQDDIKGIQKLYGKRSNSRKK
The experiment can be described thus: ELISA on MMP-coated plate, four-parametric sigmoidal fit. The method, then: as §1, §2

For experiment [2], the target named is T2, recombinant human MMP-7 activated form …. Kind of experiment: enzyme inhibition, fluorogenic peptide Mca-Pro-Leu-Gly-Leu-Dpa-Ala-Arg-NH2, 10 nM MMP-7, 37 C. The method, then: The enzymatic reaction was initiated by addition of the fluorogenic peptide to a final concentration of 10 μM. Fluorescence was recorded immediately and continuously for 30 min.
Remarkably, considering that the immunization booster also included the common zinc motif, the antibody is fully selective for MMP-7. […] Simultaneously the effect of the antibody on catalytic activity of related MMPs was measured. The catalytic activities in vitro of MMP-9, -14 and -12 were either not affected or in the case of MMP-14 only negligibly affected by the anti MMP-7 Fab treatment (FIG. 2D).

MMP-9, sequence (P14780 107-707 limits assumed): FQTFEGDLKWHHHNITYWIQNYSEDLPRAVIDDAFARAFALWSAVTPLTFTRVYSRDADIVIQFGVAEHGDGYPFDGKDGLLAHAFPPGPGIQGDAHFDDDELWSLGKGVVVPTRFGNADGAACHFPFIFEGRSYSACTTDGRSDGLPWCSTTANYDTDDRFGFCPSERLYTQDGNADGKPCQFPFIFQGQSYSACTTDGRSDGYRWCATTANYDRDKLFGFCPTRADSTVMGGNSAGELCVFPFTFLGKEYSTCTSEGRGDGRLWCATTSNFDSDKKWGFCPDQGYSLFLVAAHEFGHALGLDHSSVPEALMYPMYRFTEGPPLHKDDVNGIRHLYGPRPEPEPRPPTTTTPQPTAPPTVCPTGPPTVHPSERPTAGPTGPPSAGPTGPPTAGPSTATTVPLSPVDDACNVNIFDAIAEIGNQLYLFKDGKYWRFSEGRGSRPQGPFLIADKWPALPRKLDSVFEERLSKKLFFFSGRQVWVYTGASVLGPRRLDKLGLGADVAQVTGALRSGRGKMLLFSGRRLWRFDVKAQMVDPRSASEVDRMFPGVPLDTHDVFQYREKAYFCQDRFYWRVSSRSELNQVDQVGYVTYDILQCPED
MMP-12, sequence (P39900 106-263 limits assumed): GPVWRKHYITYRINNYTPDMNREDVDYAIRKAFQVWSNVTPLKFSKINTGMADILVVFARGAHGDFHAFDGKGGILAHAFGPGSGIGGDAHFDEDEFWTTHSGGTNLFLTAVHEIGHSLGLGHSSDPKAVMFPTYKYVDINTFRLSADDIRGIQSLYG

B1: GSM-192 monoclonal antibody (antibody, V domains shown)
VH: EVQLQQSGPELVKPGASVKIPCKASGYTFTDYNMDWMKQSHGKSLEWIGHINPNNGGTFYNQKFKDKATFIVDKSSNTAYMELRSLTSEDTAVYFCARGGGLRRGPFAYWGQGTLVTVS
VL: DIVTQSPASLAVSLGQRATISCRASESFDSYGNTFVHWYQQKPGQPPKLLIYLVSNLESGVPAGFRGRGSRTDFTLTIDPVEADDAATYYCQQNNEDPYTFGGGTKLEIKR
notes: also called anti MMP-7 mAb; anti MMP-7 Ab
With B1, the binding result in the experiment with MMP-7 zymogen / pro form, with MMP-9, with MMP-14, with MMP-12 and with MMP-13 was “no binding” each time. Besides, the Kd in experiment [1] was 43.1 nM.

B2: GSM-192 Fab fragment (Fab, V domains shown)
VH: B1 VH
VL: B1 VL
notes: also called anti MMP-7 Fab
As to B2, the Ki in experiment [2] is 132 nM.

As usually defined, the Kd is a measure of binding affinity in units of concentration. What is called Ki is a dissociation constant, usually derived from enzyme kinetics or from competition with a known ligand.
